Experimental data published in patent US20060265769A1 (BETH ISRAEL DEACONESS MEDICAL CENTER, published 2006).

T1: SHP-2 (UniProt P35235 2-593)
T1 sequence (looked up): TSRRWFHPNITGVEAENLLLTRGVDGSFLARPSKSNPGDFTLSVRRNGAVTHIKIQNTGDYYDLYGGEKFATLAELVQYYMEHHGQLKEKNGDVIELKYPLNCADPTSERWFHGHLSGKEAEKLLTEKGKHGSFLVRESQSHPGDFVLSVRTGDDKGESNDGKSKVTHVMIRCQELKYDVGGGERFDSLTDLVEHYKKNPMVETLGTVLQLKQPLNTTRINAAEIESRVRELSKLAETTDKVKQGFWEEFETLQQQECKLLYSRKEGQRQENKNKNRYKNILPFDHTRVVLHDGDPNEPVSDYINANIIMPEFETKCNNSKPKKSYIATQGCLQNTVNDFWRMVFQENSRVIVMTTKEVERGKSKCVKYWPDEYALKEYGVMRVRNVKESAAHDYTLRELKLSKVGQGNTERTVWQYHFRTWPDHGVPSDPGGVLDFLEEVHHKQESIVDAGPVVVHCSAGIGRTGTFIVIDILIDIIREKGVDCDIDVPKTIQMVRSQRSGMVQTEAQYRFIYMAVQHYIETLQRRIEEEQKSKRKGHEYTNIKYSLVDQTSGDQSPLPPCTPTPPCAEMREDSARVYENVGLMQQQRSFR

B1: Gab2HA (other, not shown: small tags and cut ends)
chain: MSGGGGDDVVCTGWLRKSPPEKKLRRYAWKKRWFILRSGRMSGDPDVLEYYKNEHSKKPLRIINLNLCEQVDAGLTFNKKELQDSFVFDIKTSERTFYLVAETEADMNKWVQSICQICGFNQAEESTDSLRNLSSASHGPRSSPAEFSSSQHLLRERKSSAPSHSSQPTLFTFEPPVSSHMQPTLSTSAPQEYLYLHQCISRRTENARSASFSQGTRQKSDTAVQKLAQSNGHCINGVGGQVHGFYSLPKPSRHNTEFKDSTYDLPRSLASHGHTKSSLTGSETDNEDVYTFKMPSNTLCRELGDLLVDNMDVPTTPLSAYQIPRTFTLDKNHNAMTVATPGDSAIAPPPRPPKPSQAETSQWGSIQQRPPISENSRSVAATIPRRNTLPAMDNSRLHRASSCETYEYPARGSGESASWSAEPPGKTAVGRSNSASSDDNYVPMNPGSSTLLAMERPGDNSQSVYIPMSPGPHHFDPLGYPSTALPIHRGPSRGSEIQPPPVNRNLKPDRKAKPTPLDLRNNTVIDELPFKSPVTKSWSRINSHTFNSSSSQYCRPISTQSITSTDSGDSEENYVPMQNPVSASPVPSGTNSPAPKKSTGSVDYLALDFQPGSPSPHRKPSTSSVTSDEKVDYVQVDKEKTQALQNTMQEWTDVRQSSEPSKGAKL
modifications: tyrosyl phosphorylated upon IL-3 stimulation
B2: Crk (other, UniProt Q64010 2-304, looked up)
chain: AGNFDSEERSSWYWGRLSRQEAVALLQGQRHGVFLVRDSSTSPGDYVLSVSENSRVSHYIINSSGPRPPVPPSPAQPPPGVSPSRLRIGDQEFDSLPALLEFYKIHYLDTTTLIEPVARSRQGSGVILRQEEAEYVRALFDFNGNDEEDLPFKKGDILRIRDKPEEQWWNAEDSEGKRGMIPVPYVEKYRPASASVSALIGGNQEGSHPQPLGGPEPGPYAQPSVNTPLPNLQNGPIYARVIQKRVPNAYDKTALALEVGELVKVTKINVSGQWEGECNGKRGHFPFTHVRLLDQQNPDEDFS
B3: Crk-L (other, UniProt P47941 1-303, looked up)
chain: MSSARFDSSDRSAWYMGPVTRQEAQTRLQGQRHGMFLVRDSSTCPGDYVLSVSENSRVSHYIINSLPNRRFKIGDQEFDHLPALLEFYKIHYLDTTTLIEPAPRYPSPPVGSVSAPNLPTAEENLEYVRTLYDFPGNDAEDLPFKKGELLVIIEKPEEQWWSARNKDGRVGMIPVPYVEKLVRSSPHGKHGNRNSNSYGIPEPAHAYAQPQTTTPLPTVASTPGAAINPLPSTQNGPVFAKAIQKRVPCAYDKTALALEVGDIVKVTRMNINGQWEGEVNGRKGLFPFTHVKIFDPQNPDDNE
B4: Crk-II (other, UniProt Q64010-1 2-304, looked up)
chain: B2 chain

How the values were obtained:
SHP-2 = molecular target: T1, SHP-2; experiment: cell-based or functional assay
Gab2 = molecular target: T2, Gab2 (mouse, UniProt Q9Z1S8 1-665, tyrosyl phosphorylated upon stimulation (Y604 and Y633 said to be highly phosphorylated)); experiment: co-immunoprecipitation and immunoblotting, BaF3 cells
T2 construct: Scaffolding protein; Endogenous protein in lysates of BaF3, BAC1.2F5 and P210BCR-ABL BaF3 cells; also called p97; p97/Gab2

Gab2HA = molecular target: B1; experiment: as above

basal c-fos luciferase activity in BaF3 cells (SHP-2) [fold]	binding result (Gab2)	binding result (Gab2HA)	Binder
~2	–	–	B1
–	no binding	no binding	B2
–	no binding	no binding	B3
–	no binding	no binding	B4
